Laboratory results published in patent US20210032664, “ENGINEERED MEGANUCLEASES WITH RECOGNITION SEQUENCES FOUND IN THE HUMAN BETA-2 MICROGLOBULIN GENE” (Precision Biosciences, Inc., published 2021).
Where a chain is given by its changes, count along the chain named. In names and notes the source's numbering stands.

What was measured:
Experiment in all cases: cell_activity; human T cells, 1 ug mRNA, day 3
Conditions in all cases: tags: N-terminal SV40 NLS
B2M 13-14x.93 QE = target: T1, B2M 13-14x.93 QE (Artificial Sequence)
T1 chain: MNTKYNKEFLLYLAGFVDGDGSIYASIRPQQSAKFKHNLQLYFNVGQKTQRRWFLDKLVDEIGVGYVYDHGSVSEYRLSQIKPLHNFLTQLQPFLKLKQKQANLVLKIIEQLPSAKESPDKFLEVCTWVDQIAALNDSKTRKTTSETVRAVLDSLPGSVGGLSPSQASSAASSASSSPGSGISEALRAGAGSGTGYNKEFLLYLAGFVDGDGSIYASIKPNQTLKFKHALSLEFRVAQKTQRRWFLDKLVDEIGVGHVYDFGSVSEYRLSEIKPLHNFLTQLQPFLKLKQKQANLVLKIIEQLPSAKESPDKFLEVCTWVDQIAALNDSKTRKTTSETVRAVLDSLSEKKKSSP
Description: (§1) To test these variants of B2M 13-14x.93, donor human T cells were stimulated with anti-CD3 and anti-CD28 antibodies for 3 days, then electroporated with mRNA encoding a given B2M 13-14 meganuclease (1 μg) using the Amaxa 4D-Nucleofector (Lonza) according to the manufacturer's instructions. At 3 days post-electroporation, cells were stained with an antibody recognizing β-2 microglobulin (BD Biosciences) and analyzed by flow cytometry.

B2M 13-14x.93 EEY66 = target: T2, B2M 13-14x.93 EEY66 (Artificial Sequence)
T2 chain: T1 chain with Q80E
Description: as §1

B2M 13-14x.93 EQK66 = target: T3, B2M 13-14x.93 EQK66 (Artificial Sequence)
T3 chain: T1 chain with Y66K, Q80E, E271Q
Description: as §1

B2M 13-14x.93 EEK66 = target: T4, B2M 13-14x.93 EEK66 (Artificial Sequence)
T4 chain: T1 chain with Y66K, Q80E
Description: as §1

B2M 13-14x.93 EQ = target: T5, B2M 13-14x.93 EQ (Artificial Sequence)
T5 chain: T1 chain with Q80E, E271Q
Description: as §1

B2M 13-14x.93 EER66 = target: T6, B2M 13-14x.93 EER66 (Artificial Sequence)
T6 chain: T1 chain with Y66R, Q80E
Description: as §1

B2M 13-14x.93 EQR66 = target: T7, B2M 13-14x.93 EQR66 (Artificial Sequence)
T7 chain: T1 chain with Y66R, Q80E, E271Q
Description: as §1

B1: B2M 13-14 recognition sequence (dsDNA)
DNA 1: CTATCTCTTGTACTACACTGAA
DNA 2: TTCAGTGTAGTACAAGAGATAG
Q: What does the source list for B1?
A: activity (B2M 13-14x.93 QE): 37 % B2M-negative; activity (B2M 13-14x.93 EEY66): 1.58 % B2M-negative; activity (B2M 13-14x.93 EQK66): 6.81 % B2M-negative; activity (B2M 13-14x.93 EEK66): 3.84 % B2M-negative; activity (B2M 13-14x.93 EQ): 5.13 % B2M-negative; activity (B2M 13-14x.93 EER66): 7.07 % B2M-negative; activity (B2M 13-14x.93 EQR66): 5.12 % B2M-negative
